Laboratory results: patent US9802997B2, “Peptides and combination of peptides for use in immunotherapy against various tumors” (immatics biotechnologies GmbH, priority 2015, dated 2017)

What follows are substances tested against HLA-A*02:01 (Homo sapiens, UniProt P04439, D140Y/D185E/D98H/E176V/E277Q/G131W/G231S/I119V/I121R/I166T/I218V/L300P/L318F/N151K/N90K/P208A/P217A/Q86G/Q94H/R138H/R169H/T345S) (assay: MHC binding assay (UV-ligand exchange, beta2m ELISA)). Details: binding to HLA-A*02:01, β2m ELISA.
Description: Candidate peptides for T cell based therapies according to the present invention were further tested for their MHC binding capacity (affinity). The individual peptide-MHC complexes were produced by UV-ligand exchange, where a UV-sensitive peptide is cleaved upon UV-irradiation, and exchanged with the peptide of interest as analyzed. Only peptide candidates that can effectively bind and stabilize the peptide-receptive MHC molecules prevent dissociation of the MHC complexes. To determine the yield of the exchange reaction, an ELISA was performed based on the detection of the light chain (β2m) of stabilized MHC complexes. The assay was performed as generally described in Rodenko et al. (Rodenko et al., 2006).
96 well MAXISorp plates (NUNC) were coated over night with 2 ug/ml streptavidin in PBS at room temperature, washed 4× and blocked for 1 h at 37° C. in 2% BSA containing blocking buffer. Refolded HLA-A*02:01/MLA-001 monomers served as standards, covering the range of 15-500 ng/ml. Peptide-MHC monomers of the UV-exchange reaction were diluted 100 fold in blocking buffer. Samples were incubated for 1 h at 37° C., washed four times, incubated with 2 ug/ml HRP conjugated anti-β2m for 1 h at 37° C., washed again and detected with TMB solution that is stopped with […]. Absorption was measured at 450 nm. Candidate peptides that show a high exchange yield (preferably higher than 50%, most preferred higher than 75%) are generally preferred for a generation and production of antibodies or fragments thereof, and/or T cell receptors or fragments thereof, as they show sufficient avidity to the MHC molecules and prevent dissociation of the MHC complexes.
For “178 (SLVSWQLLL; listed as Homo sapiens) [compound 178]”, the “Peptide exchange (MHC class I binding score, peptide exchange yield)” value (shortened to “Peptide exchange”) was “++++ (≧75% = ++++)”.
For “47 (GLNGFNVLL; listed as Homo sapiens) [compound 47]”, the “Peptide exchange” value was “+++ (≧50 = +++)”.
With “250 (LMQDSRLYL; listed as Homo sapiens) [compound 250]” the “Peptide exchange” value was “+++ (≧50 = +++)”.
“51 (LDSEALLTL; listed as Homo sapiens) [compound 51]” was tested, and the “Peptide exchange” value was “++ (≧20% = ++)”.
For “199 (SVADLAHVL; listed as Homo sapiens) [compound 199]”, the “Peptide exchange” value was “++ (≧20% = ++)”.
With “130 (QLYGSAITL; listed as Homo sapiens) [compound 130]” the “Peptide exchange” value was “+++ (≧50 = +++)”.
With “21 (YLMDDFSSL; listed as Homo sapiens) [compound 21]” the “Peptide exchange” value was “+++ (≧50 = +++)”.
With “18 (KTASINQNV; listed as Homo sapiens) [compound 18]” the “Peptide exchange” value was “++ (≧20% = ++)”.
For “225 (FLPQPVPLSV; listed as Homo sapiens) [compound 225]”, the “Peptide exchange” value was “+++ (≧50 = +++)”.
“107 (RVLPGQAVTGV; listed as Homo sapiens) [compound 107]” was tested, and the “Peptide exchange” value was “++ (≧20% = ++)”.
For “143 (MLWESIMRV; listed as Homo sapiens) [compound 143]”, the “Peptide exchange” value was “+++ (≧50 = +++)”.
“145 (ALEEKLENV; listed as Homo sapiens) [compound 145]” was tested, and the “Peptide exchange” value was “+++ (≧50 = +++)”.
In the case of “30 (IITEVITRL; listed as Homo sapiens) [compound 30]”, the “Peptide exchange” value is reported as “+++ (≧50 = +++)”.
For “216 (ALSTVTPRI; listed as Homo sapiens) [compound 216]”, the “Peptide exchange” value was “++ (≧20% = ++)”.
“117 (TLLEGISRA; listed as Homo sapiens) [compound 117]” was tested, and the “Peptide exchange” value was “++ (≧20% = ++)”.
For “122 (SIIDTELKV; listed as Homo sapiens) [compound 122]”, the “Peptide exchange” value was “+++ (≧50 = +++)”.
In the case of “96 (ALDTTRHEL; listed as Homo sapiens) [compound 96]”, the “Peptide exchange” value is reported as “++ (≧20% = ++)”.
With “177 (ALINVLNAL; listed as Homo sapiens) [compound 177]” the “Peptide exchange” value was “+++ (≧50 = +++)”.
For “226 (SLAGNLQEL; listed as Homo sapiens) [compound 226]”, the “Peptide exchange” value was “+++ (≧50 = +++)”.
With “279 (VLMDEGAVLTL; listed as Homo sapiens) [compound 279]” the “Peptide exchange” value was “++ (≧20% = ++)”.
“277 (KLQEELNKV; listed as Homo sapiens) [compound 277]” was tested, and the “Peptide exchange” value was “+++ (≧50 = +++)”.
“19 (KVFELDLVTL; listed as Homo sapiens) [compound 19]” was tested, and the “Peptide exchange” value was “++ (≧20% = ++)”.
In the case of “1 (KLQEKIQEL; listed as Homo sapiens) [compound 1]”, the “Peptide exchange” value is reported as “++++ (≧75% = ++++)”.
With “198 (ILTNKVVSV; listed as Homo sapiens) [compound 198]” the “Peptide exchange” value was “++ (≧20% = ++)”.
With “207 (KLFETVEEL; listed as Homo sapiens) [compound 207]” the “Peptide exchange” value was “+++ (≧50 = +++)”.
With “44 (AVFNLVHVV; listed as Homo sapiens) [compound 44]” the “Peptide exchange” value was “+++ (≧50 = +++)”.
With “271 (VLIEYNFSI; listed as Homo sapiens) [compound 271]” the “Peptide exchange” value was “+++ (≧50 = +++)”.
For “68 (QLMNLIRSV; listed as Homo sapiens) [compound 68]”, the “Peptide exchange” value was “+++ (≧50 = +++)”.
In the case of “94 (YLDEVAFML; listed as Homo sapiens) [compound 94]”, the “Peptide exchange” value is reported as “+++ (≧50 = +++)”.
For “132 (ALLNNVIEV; listed as Homo sapiens) [compound 132]”, the “Peptide exchange” value was “+++ (≧50 = +++)”.
With “278 (VLEDKVLSV; listed as Homo sapiens) [compound 278]” the “Peptide exchange” value was “+++ (≧50 = +++)”.
For “217 (LLWPSSVPA; listed as Homo sapiens) [compound 217]”, the “Peptide exchange” value was “+++ (≧50 = +++)”.
For “211 (LLTTVLINA; listed as Homo sapiens) [compound 211]”, the “Peptide exchange” value was “+++ (≧50 = +++)”.
With “249 (YLYQILQGI; listed as Homo sapiens) [compound 249]” the “Peptide exchange” value was “+++ (≧50 = +++)”.
For “237 (ALLEQTGDMSL; listed as Homo sapiens) [compound 237]”, the “Peptide exchange” value was “+++ (≧50 = +++)”.
With “276 (RMPTVLQCV; listed as Homo sapiens) [compound 276]” the “Peptide exchange” value was “+++ (≧50 = +++)”.
In the case of “88 (LLLPLELSLA; listed as Homo sapiens) [compound 88]”, the “Peptide exchange” value is reported as “+++ (≧50 = +++)”.
In the case of “158 (YLDPLWHQL; listed as Homo sapiens) [compound 158]”, the “Peptide exchange” value is reported as “+++ (≧50 = +++)”.
With “138 (GIINKLVTV; listed as Homo sapiens) [compound 138]” the “Peptide exchange” value was “++ (≧20% = ++)”.
With “162 (GLLGNLLTSL; listed as Homo sapiens) [compound 162]” the “Peptide exchange” value was “+++ (≧50 = +++)”.
“113 (FLFLKEVKV; listed as Homo sapiens) [compound 113]” was tested, and the “Peptide exchange” value was “++ (≧20% = ++)”.
“128 (SILTNISEV; listed as Homo sapiens) [compound 128]” was tested, and the “Peptide exchange” value was “++ (≧20% = ++)”.
In the case of “171 (LLLLDVPTA; listed as Homo sapiens) [compound 171]”, the “Peptide exchange” value is reported as “++ (≧20% = ++)”.
For “75 (ALLDGALQL; listed as Homo sapiens) [compound 75]”, the “Peptide exchange” value was “+++ (≧50 = +++)”.
In the case of “190 (SLSTELFKV; listed as Homo sapiens) [compound 190]”, the “Peptide exchange” value is reported as “+++ (≧50 = +++)”.
In the case of “61 (ALYPKEITL; listed as Homo sapiens) [compound 61]”, the “Peptide exchange” value is reported as “+++ (≧50 = +++)”.
With “115 (ILHGEVNKV; listed as Homo sapiens) [compound 115]” the “Peptide exchange” value was “++ (≧20% = ++)”.
For “80 (VLTGQVHEL; listed as Homo sapiens) [compound 80]”, the “Peptide exchange” value was “+++ (≧50 = +++)”.
In the case of “247 (NLLIDDKGTIKL; listed as Homo sapiens) [compound 247]”, the “Peptide exchange” value is reported as “++ (≧20% = ++)”.
In the case of “173 (RLIDIYKNV; listed as Homo sapiens) [compound 173]”, the “Peptide exchange” value is reported as “+++ (≧50 = +++)”.
For “147 (GLLSALENV; listed as Homo sapiens) [compound 147]”, the “Peptide exchange” value was “+++ (≧50 = +++)”.
For “229 (YLYELEHAL; listed as Homo sapiens) [compound 229]”, the “Peptide exchange” value was “++ (≧20% = ++)”.
“90 (AILNVDEKNQV; listed as Homo sapiens) [compound 90]” was tested, and the “Peptide exchange” value was “++ (≧20% = ++)”.
For “224 (LLFDWSGTGRADA; listed as Homo sapiens) [compound 224]”, the “Peptide exchange” value was “+++ (≧50 = +++)”.
For “245 (ALLEEEEGV; listed as Homo sapiens) [compound 245]”, the “Peptide exchange” value was “++ (≧20% = ++)”.
In the case of “167 (LVVDEGSLVSV; listed as Homo sapiens) [compound 167]”, the “Peptide exchange” value is reported as “+++ (≧50 = +++)”.
In the case of “63 (KLLPMVIQL; listed as Homo sapiens) [compound 63]”, the “Peptide exchange” value is reported as “+++ (≧50 = +++)”.
